Results reported in PMC5825165, “EAT1 transcription factor, a non-cell-autonomous regulator of pollen production, activates meiotic small RNA biogenesis in rice anther tapetum” (PLoS Genetics, 2018).

T1: UDT1-nYFP (UNDEVELOPED TAPETUM1 fused with the N-terminal split of YFP) (rice (japonica cv. Nipponbare), UniProt B9FXT3 1-234)
T1 sequence (looked up): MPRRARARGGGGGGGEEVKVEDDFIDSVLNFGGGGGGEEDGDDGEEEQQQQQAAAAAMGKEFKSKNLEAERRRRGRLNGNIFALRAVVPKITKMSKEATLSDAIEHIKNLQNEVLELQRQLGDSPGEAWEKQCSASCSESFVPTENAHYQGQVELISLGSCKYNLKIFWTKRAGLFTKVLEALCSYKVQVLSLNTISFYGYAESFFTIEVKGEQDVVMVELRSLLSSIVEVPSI


Target: T1, UDT1-nYFP (UNDEVELOPED TAPETUM1 fused …)
Assay: cell-based or functional assay

transient expression assay in rice protoplasts: firefly Luciferase activity of the 24-PHAS chr5-20 promoter on EAT1-UDT1 cotransfection (untagged effectors), fold against the no effector control [fold] | transient expression assay in rice protoplasts: firefly Luciferase activity of the 24-PHAS chr6-97 promoter on EAT1-UDT1 cotransfection (untagged effectors), fold against the no effector control [fold] | transient expression assay in rice protoplasts: firefly Luciferase activity of the EAT1 promoter (pEAT1) on EAT1-UDT1 cotransfection (untagged effectors) [fold] | transient expression assay in rice protoplasts: firefly Luciferase activity of the 24-PHAS chr5-20 promoter on TIP2-UDT1 cotransfection (untagged effectors) [fold] | transient expression assay in rice protoplasts: firefly Luciferase activity of the 24-PHAS chr6-97 promoter on TIP2-UDT1 cotransfection (untagged effectors) [fold] | transient expression assay in rice protoplasts: firefly Luciferase activity of the DCL5 promoter (pDCL5) on TIP2-UDT1 cotransfection (untagged effectors) [fold] | transient expression assay in rice protoplasts: firefly Luciferase activity of the EAT1 promoter (pEAT1) on TIP2-UDT1 cotransfection (untagged effectors) [fold] | Binder
4.46 | 3.99 | 7.61 | – | – | – | – | EAT1-cYFP (ETERNAL TAPETUM1 fused with the C-terminal split of YFP) (natural protein, rice (japonica cv. Nipponbare), UniProt Q7X8R0 1-464, looked up) MIVGAGYFEDSHDQSLMAGSLIHDSNQAPASSENTSIDLQKFKVHPYSTEALSNTANLAEAARAINHLQHQLEIDLEQEVPPVETANWDPAICTIPDHIINHQFSEDPQNILVEQQIQQYDSALYPNGVYTPAPDLLNLMQCTMAPAFPATTSVFGDTTLNGTNYLDLNGELTGVAAVPDSGSGLMFASDSALQLGYHGTQSHLIKDICHSLPQNYGLFPSEDERDVIIGVGSGDLFQEIDDRQFDSVLECRRGKGEFGKGKGKANFATERERREQLNVKFRTLRMLFPNPTKNDRASIVGDAIEYIDELNRTVKELKILVEQKRHGNNRRKVLKLDQEAAADGESSSMRPVRDDQDNQLHGAIRSSWVQRRSKECHVDVRIVDDEVNIKLTEKKKANSLLHAAKVLDEFQLELIHVVGGIIGDHHIFMFNTKVSEGSAVYACAVAKKLLQAVDVQHQALDIFN
– | – | – | 8.63 | 2.73 | 4.91 | 5.72 | TIP2-cYFP (TDR INTERACTING PROTEIN2 fused with the C-terminal split of YFP) (natural protein, rice (japonica cv. Nipponbare), UniProt Q5JNS0 1-379, looked up) MYHPQCELLMPLESLEMDVGQSHLAAAVAAAMPGELNFHLLHSLDAAAAAASSTAASASSQPTVDYFFGGADQQPPPPAAMQYDQLAAPHHHQTVAMLRDYYGGHYPPAAAAAAATEAYFRGGPRTAGSSSLVFGPADDESAFMVGPFESSPTPRSGGGRKRSRATAGFHGGGPANGVEKKEKQRRLRLTEKYNALMLLIPNRTKEDRATVISDAIEYIQELGRTVEELTLLVEKKRRRREMQGDVVDAATSSVVAGMDQAAESSEGEVMAAAAMGAVAPPPRQAPIRSTYIQRRSKETFVDVRIVEDDVNIKLTKRRRDGCLAAASRALDDLRLDLVHLSGGKIGDCHIYMFNTKIHSGSPVFASAVASRLIEVVDEY
